The record followed here is patent US20180215802A1 (MUSC FOUNDATION FOR RESEARCH DEVELOPMENT, published 2018).

Data set [1] has as its target MET receptor tyrosine kinase, wild type, full length, P08581.
Data set [2] has as its target T1, Recombinant human Smad2 (NM 005901) with C-terminal MYC/DDK tag (human, UniProt Q15796 1-467).
T1 construct: Bought from OriGene; also called DDK-tagged recombinant Smad2; DDK-tagged Smad2; not shown: C-terminal MYC/DDK tag
In words: peptide-protein interaction assay: M10 and DDK-tagged Smad2 (1 µg each), capture with C12 antibody and protein G sepharose, anti-DDK immunoblot.

The target in data set [3] is T2, Recombinant human Smad4 (NM 005359) with C-terminal MYC/DDK tag (human, UniProt Q13485 1-552).
T2 construct: Bought from OriGene; also called DDK-tagged recombinant Smad4; DDK-tagged Smad4; not shown: C-terminal MYC/DDK tag
T2 sequence (looked up): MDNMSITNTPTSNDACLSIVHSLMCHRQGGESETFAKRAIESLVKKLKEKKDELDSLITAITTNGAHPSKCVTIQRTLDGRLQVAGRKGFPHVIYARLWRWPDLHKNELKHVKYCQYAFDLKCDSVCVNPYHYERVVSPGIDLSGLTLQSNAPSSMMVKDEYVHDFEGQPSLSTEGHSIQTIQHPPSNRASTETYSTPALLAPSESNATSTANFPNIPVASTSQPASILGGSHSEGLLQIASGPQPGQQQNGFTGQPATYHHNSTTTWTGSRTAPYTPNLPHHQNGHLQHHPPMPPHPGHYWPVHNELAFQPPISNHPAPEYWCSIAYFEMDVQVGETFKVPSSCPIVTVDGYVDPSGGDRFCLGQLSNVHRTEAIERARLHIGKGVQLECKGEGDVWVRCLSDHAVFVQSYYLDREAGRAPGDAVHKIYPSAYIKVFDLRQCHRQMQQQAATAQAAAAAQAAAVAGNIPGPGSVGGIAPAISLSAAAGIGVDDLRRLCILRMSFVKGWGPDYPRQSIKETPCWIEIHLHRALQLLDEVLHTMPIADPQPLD
Nature of the data set: peptide-protein interaction assay: capture with C12 antibody and protein G sepharose, anti-DDK immunoblot. A general note: Immunoblotting shows a protein as a band on a membrane.

MET receptor tyrosine kinase, wild type, full length, P08581, sequence (P08581 whole entry, looked up): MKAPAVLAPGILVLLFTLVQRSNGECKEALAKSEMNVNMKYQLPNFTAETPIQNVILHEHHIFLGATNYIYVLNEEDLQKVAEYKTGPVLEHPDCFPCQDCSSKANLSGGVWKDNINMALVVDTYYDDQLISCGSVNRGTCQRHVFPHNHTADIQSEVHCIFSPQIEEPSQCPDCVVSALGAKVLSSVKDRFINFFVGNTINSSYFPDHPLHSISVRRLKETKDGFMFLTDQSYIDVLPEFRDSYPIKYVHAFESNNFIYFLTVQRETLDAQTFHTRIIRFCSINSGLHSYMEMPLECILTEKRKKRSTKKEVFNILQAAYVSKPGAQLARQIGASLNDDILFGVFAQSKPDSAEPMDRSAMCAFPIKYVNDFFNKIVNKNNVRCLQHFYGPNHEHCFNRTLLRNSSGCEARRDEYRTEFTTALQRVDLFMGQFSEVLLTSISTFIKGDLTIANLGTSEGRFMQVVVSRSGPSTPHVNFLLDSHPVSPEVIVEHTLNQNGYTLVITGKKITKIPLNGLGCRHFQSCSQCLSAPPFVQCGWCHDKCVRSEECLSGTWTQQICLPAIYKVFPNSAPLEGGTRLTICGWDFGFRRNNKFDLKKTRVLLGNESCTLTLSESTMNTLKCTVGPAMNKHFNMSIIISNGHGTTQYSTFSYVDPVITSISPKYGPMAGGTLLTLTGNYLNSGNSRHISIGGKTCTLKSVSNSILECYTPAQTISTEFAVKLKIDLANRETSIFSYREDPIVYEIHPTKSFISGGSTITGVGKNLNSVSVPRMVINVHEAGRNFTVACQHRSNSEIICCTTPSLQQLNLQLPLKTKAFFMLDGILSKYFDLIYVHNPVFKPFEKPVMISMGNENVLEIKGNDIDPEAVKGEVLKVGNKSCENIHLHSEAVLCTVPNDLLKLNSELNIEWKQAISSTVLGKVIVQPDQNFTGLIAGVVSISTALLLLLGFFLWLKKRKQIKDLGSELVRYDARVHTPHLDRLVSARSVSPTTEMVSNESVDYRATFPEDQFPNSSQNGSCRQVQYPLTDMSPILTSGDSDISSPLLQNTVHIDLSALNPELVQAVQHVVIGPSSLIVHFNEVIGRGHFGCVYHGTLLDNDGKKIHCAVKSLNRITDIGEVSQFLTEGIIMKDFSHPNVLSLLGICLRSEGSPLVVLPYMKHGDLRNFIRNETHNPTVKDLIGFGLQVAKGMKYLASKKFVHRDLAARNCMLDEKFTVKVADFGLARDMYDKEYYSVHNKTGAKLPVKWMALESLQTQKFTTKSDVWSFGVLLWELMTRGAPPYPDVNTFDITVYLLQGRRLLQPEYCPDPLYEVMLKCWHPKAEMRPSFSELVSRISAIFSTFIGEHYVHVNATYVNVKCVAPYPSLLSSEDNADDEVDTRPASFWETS
T1 sequence (Q15796 whole entry): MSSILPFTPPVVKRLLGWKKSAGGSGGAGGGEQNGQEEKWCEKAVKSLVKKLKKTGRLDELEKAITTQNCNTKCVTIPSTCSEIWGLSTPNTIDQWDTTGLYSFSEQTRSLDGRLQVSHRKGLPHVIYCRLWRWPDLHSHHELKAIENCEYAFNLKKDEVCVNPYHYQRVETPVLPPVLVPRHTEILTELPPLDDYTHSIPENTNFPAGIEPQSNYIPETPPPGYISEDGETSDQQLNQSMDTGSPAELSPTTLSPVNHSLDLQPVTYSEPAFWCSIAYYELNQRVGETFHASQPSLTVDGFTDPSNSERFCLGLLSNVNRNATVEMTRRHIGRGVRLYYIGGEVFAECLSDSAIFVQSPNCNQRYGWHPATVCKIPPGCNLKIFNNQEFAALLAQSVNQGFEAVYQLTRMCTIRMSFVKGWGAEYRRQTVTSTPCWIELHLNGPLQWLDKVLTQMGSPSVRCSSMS

B1: caspase-3 (activated, endogenous in lung fibroblasts and alveolar epithelial cells) (protein)
chain: SGISLDNSYKMDYPEMGLCIIINNKNFHKSTGMTSRSGTDVDAANLRETFRNLKYEVRNKNDLTREEIVELMRDVSKEDHSKRSSFVCVLLSHGEEGIIFGTNGPVDLKKITNFFRGDRCRSLTGKPKLFIIQACRGTELDCGIETDSGVDDDMACHKIPVEADFLYAYSTAPGYYSWRNSKDGSWFIQSLCAMLKQYADKLEFMHILTRVNRKVATEFESFSFDATFHAKKQIPCIVSMLTKELYFYH
For B1, in data set [1], the “cleavage of the MET C-terminus (loss of C12 signal in Western blot)” value is listed as “Cisplatin-induced caspase-3 cleavage was associated with a loss of detectable MET protein in Western blots with the C12 antibody”.

B2: M10 peptide (TRPASFWETS), synthetic (peptide)
peptide: TRPASFWETS
notes: Synthetic peptide from GenScript; A 5,6-TAMRA conjugate (at the N-terminus) was used only for localisation; also called 2 kD C-terminal fragment (M10) of the MET receptor; last 10 amino acids of MET
For the molecule B2, the binding result in data set [2] is listed as “binds”; in data set [3], “no binding (tested: 1 µg each)”.
